Data as given in patent US20090111745A1 (DOMANTIS, published 2009).

Key:
human serum albumin [1] = biological target: T1, human serum albumin (human, UniProt P02768 25-609); assay: BIACORE SPR, albumin on a CM5 chip, dAb in solution
T1 construct: also called HSA; HAS
Method: (§1) dAbs that bound serum albumin on a BIACORE chip (Biacore AB) were then further analysed to obtain information on affinity. The analysis was performed using a CM5 chip (carboxymethylated dextran matrix) that was coated with serum albumin. Flow cell 1 was an uncoated, blocked negative control, flow cell 2 was coated with HSA, flow cell 3 was coated with RSA and flow cell 4 was coated with MSA. The serum albumins were immobilised in acetate buffer pH 5.5 using the BIACORE coating wizard which was programmed to aim for 500 resonance units (RUs) of coated material. Each dAb of interest was expressed in the periplasm of E. coli on a 200 mL-500 mL scale and purified from the supernatant using batch absorption to protein A-streamline affinity resin (Amersham, UK) for the VH_{^S} and to protein L-agarose affinity resin (Affitech, Norway) for the Vκs followed by elution with glycine at pH 2.2 and buffer exchange to PBS. A range of concentrations of dAb were prepared (in the range 5 nM to 5 μM) by dilution into BIACORE HBS-EP buffer and flowed across the BIACORE chip.

mouse serum albumin = biological target: T2, mouse serum albumin (mouse, UniProt P07724 25-608); assay: table of affinities (KD); BIACORE on serum albumin-coated chip according to Example 1;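 also: surface plasmon resonance with dAbs flowed over a chip carrying human, rat or mouse serum albumin, blocked uncoated flow cell as reference, KD from on- and off-rate curve fits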
T2 construct: also called MSA
Method: as §1

human serum albumin [2] = biological target: T1, human serum albumin; assay: as above
Method: as §1

rat serum albumin = biological target: T3, rat serum albumin (rat, UniProt P02770 25-608); assay: as above
T3 construct: also called RSA
Method: as §1

human serum albumin [3] = biological target: T1, human serum albumin; assay: BIACORE, HSA flow cell (Fc=2), fit of the single trace at 250n analyte, row 'Fc=2 - 6' [contd.]
Method: as §1

human serum albumin [4] = biological target: T1, human serum albumin; assay: BIACORE, HSA flow cell (Fc=2), fit of the single trace at 500n analyte, row 'Fc=2 - 5' [contd.]
Method: as §1

human serum albumin [5] = biological target: T1, human serum albumin; assay: BIACORE, HSA flow cell (Fc=2), fit of the single trace at 1000n analyte, row 'Fc=2 - 4' [contd.]
Method: as §1

human serum albumin [6] = biological target: T1, human serum albumin; assay: BIACORE, HSA flow cell (Fc=2), fit of the single trace at 2000n analyte, row 'Fc=2 - 3' [contd.]
Method: as §1

human serum albumin [7] = biological target: T1, human serum albumin; assay: BIACORE, HSA flow cell (Fc=2), fit of the single trace at 250n analyte, row 'Fc=2 - 6'; KD cell shaded [contd.]
Method: (§2) dAbs that bound serum albumin on a BIACORE chip (Biacore AB) were then further analysed to obtain information on affinity. The analysis was performed using a CM5 chip (carboxymethylated dextran matrix) that was coated with serum albumin. Flow cell 1 was an uncoated, blocked negative control, flow cell 2 was coated with HSA, flow cell 3 was coated with RSA and flow cell 4 was coated with MSA. The serum albumins were immobilised in acetate buffer pH 5.5 using the BIACORE coating wizard which was programmed to aim for 500 resonance units (RUs) of coated material. […] A range of concentrations of dAb were prepared (in the range 5 nM to 5 μM) by dilution into BIACORE HBS-EP buffer and flowed across the BIACORE chip.

human serum albumin [8] = biological target: T1, human serum albumin; assay: BIACORE, HSA flow cell (Fc=2), fit of the single trace at 500n analyte, row 'Fc=2 - 5'; KD cell shaded [contd.]
Method: as §2

human serum albumin [9] = biological target: T1, human serum albumin; assay: BIACORE, HSA flow cell (Fc=2), fit of the single trace at 1000n analyte, row 'Fc=2 - 4'; KD cell shaded [contd.]
Method: as §1

human serum albumin [10] = biological target: T1, human serum albumin; assay: BIACORE, HSA flow cell (Fc=2), fit of the single trace at 2000n analyte, row 'Fc=2 - 3'; KD cell shaded [contd.]
Method: as §1

B1: DOM7h-1 (other)
VL: DIQMTQSPSSLSASVGDRVTITCRASQSISSYLNWYQQKPGKAPKLLIYRNSFLQSGVPSRFSGSGSGTDFTLTISSLQPEDFATYYCQQTYTVPPTFGQGTKVEIKQ
notes: also called DOM7-1
Kd (human serum albumin [1]): 500 to 5000 nM | Kd (mouse serum albumin): > 5000 nM | Kd (human serum albumin [2]): 800 nM | Kd (rat serum albumin): > 5000 nM | Ka (human serum albumin [3]): 1.03e+06 M⁻¹ | koff (human serum albumin [3]): 0.0486 s⁻¹ | kon (human serum albumin [3]): 50100 M⁻¹ s⁻¹ | Ka (human serum albumin [4]): 2.33e+06 M⁻¹ | koff (human serum albumin [4]): 0.0481 s⁻¹ | kon (human serum albumin [4]): 112000 M⁻¹ s⁻¹ | Ka (human serum albumin [5]): 2.85e+06 M⁻¹ | koff (human serum albumin [5]): 0.0523 s⁻¹ | kon (human serum albumin [5]): 149000 M⁻¹ s⁻¹ | Ka (human serum albumin [6]): 1.05e+06 M⁻¹ | koff (human serum albumin [6]): 0.0539 s⁻¹ | kon (human serum albumin [6]): 56300 M⁻¹ s⁻¹ | Kd (human serum albumin [7]): 970 nM | Kd (human serum albumin [8]): 429 nM | Kd (human serum albumin [9]): 351 nM | Kd (human serum albumin [10]): 957 nM
